Tests used:
[1] = biological target: T1, BcsQ (BcsR2Q2 in the Bcs macrocomplex) (Escherichia coli, UniProt P0DP92); assay: cryo-EM structure of the complex; format: binding; details: nucleotide-driven BcsQ sandwich dimer; text says ATP-bound, but 10 uM AppCp (non-hydrolysable analogue) was in the purification buffers; 5 mM MgCl2, pH 8.0
T1 construct: full-length untagged BcsQ with His-BcsR; co-expressed Bcs macrocomplex in E. coli NiCo21(DE3), anti-FLAG purified; nucleotide-driven sandwich dimer; with Cellulose biosynthesis protein BcsR; Cellulose synthase catalytic subunit [UDP-forming]; Cellulose biosynthesis protein BcsF; Cellulose biosynthesis protein BcsG
T1 sequence (P0DP92 1-250): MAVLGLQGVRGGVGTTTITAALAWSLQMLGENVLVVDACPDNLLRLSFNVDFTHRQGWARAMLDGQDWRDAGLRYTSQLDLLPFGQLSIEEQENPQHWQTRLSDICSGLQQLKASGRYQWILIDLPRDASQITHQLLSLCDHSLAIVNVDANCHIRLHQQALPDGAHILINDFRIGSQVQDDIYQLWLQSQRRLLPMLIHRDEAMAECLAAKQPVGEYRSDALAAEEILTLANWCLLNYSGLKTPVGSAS
T1 sequence (P0ADJ3 1-62 partner): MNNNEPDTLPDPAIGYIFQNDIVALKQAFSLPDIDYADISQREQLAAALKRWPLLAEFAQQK

[2] = biological target: T2, BcsE (in the BcsR2Q2AB6E2F2G3 Bcs macrocomplex) (Escherichia coli, UniProt P37657); assay: cryo-EM structure of the complex; format: binding; details: intercalated c-di-GMP dimer per BcsE protomer at the REC*-GGDEF* dual I-site (R306ATD, R415TGD); 2-4 uM c-di-GMP, 5 mM MgCl2, pH 8.0
T2 construct: full-length, N-terminal Strep II tag; co-expressed Bcs macrocomplex in E. coli NiCo21(DE3), anti-FLAG purified; with Cellulose biosynthesis protein BcsF; Cellulose biosynthesis protein BcsR; Cellulose biosynthesis protein BcsQ; Cellulose synthase catalytic subunit [UDP-forming]; Cellulose biosynthesis protein BcsG

[3] = biological target: the molecule itself; assay: cryo-EM structure; same sample and grids as a1; class of particles with a c-di-GMP-free BcsA synthase (non-saturated macrocomplex), with local refinements
[4] = biological target: the molecule itself; assay: cryo-EM structure; Bcs macrocomplex co-expressed in E. coli and purified on anti-FLAG gel by BcsA^HA-FLAG, 20 mM HEPES pH 8.0, 120 mM NaCl, 5 mM MgCl2, 10 μM AppCp, 4 μM c-di-GMP, 0.01% LM-NPG; class of the c-di-GMP-saturated macrocomplex with local refinements; the BcsB crown refined from all particles
[5] = biological target: T3, BcsA cellulose synthase (BcsA^HA-FLAG) (E. coli, UniProt P37653 1-872); assay: cryo-EM structure; same sample and grids as a1; class of particles with a c-di-GMP-free BcsA synthase (non-saturated macrocomplex), with local refinements; details: both partners purified
T3 construct: BcsA, E. coli; amplified within the genomic region bcsRQA^HA-FLAGB from genomic DNA of the E. coli 1094 bcsA^HA-FLAG strain; domains NTD, TMD, GT, PilZ, C-terminal tail; Expressed from the whole genomic region bcsRQAB of strain 1094; One copy in the macrocomplex; source: for the BcsF variants E. coli Δbcs BL21*(DE3)
T3 sequence: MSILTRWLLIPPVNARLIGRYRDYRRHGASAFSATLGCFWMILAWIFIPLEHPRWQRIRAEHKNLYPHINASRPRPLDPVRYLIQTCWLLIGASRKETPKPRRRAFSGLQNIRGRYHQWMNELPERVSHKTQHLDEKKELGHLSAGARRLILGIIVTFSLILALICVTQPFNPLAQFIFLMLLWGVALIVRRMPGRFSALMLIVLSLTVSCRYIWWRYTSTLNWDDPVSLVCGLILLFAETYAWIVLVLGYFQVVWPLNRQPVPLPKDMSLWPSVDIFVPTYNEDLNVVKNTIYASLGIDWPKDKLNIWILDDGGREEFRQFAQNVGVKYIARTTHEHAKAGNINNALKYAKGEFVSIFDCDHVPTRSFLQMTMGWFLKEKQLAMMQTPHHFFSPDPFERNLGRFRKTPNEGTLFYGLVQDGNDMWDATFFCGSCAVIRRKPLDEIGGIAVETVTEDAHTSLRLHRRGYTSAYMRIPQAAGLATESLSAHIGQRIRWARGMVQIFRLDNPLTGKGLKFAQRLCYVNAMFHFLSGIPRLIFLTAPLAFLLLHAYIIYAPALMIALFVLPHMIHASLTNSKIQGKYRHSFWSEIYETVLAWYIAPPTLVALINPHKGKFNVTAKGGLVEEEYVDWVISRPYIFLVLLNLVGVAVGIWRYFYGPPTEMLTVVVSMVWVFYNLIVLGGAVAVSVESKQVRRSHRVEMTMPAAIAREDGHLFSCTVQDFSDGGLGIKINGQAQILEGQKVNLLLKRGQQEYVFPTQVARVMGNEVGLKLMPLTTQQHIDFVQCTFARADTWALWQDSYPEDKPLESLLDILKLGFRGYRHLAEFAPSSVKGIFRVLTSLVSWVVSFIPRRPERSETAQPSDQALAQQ

**Q.** For `Nc1ncnc2c1ncn2[C@@H]1O[C@H](COP(=O)(O)OP(=O)(O)OP(=O)(O)O)[C@@H](O)[C@H]1O` [ATP], which “cryo-EM structure of the complex” value [1] is on record?
**A.** the BcsR copies stabilize the ATP-bound BcsQ apical dimer

**Q.** For `Nc1nc2c(ncn2[C@@H]2O[C@@H]3COP(=O)(O)O[C@H]4[C@@H](O)[C@H](n5cnc6c(=O)[nH]c(N)nc65)O[C@@H]4COP(=O)(O)O[C@H]3[C@H]2O)c(=O)[nH]1` [c-di-GMP], which “cryo-EM structure of the complex” value [2] is on record?
**A.** An intercalated c-di-GMP dimer is found at each cis-interdomain interface of a closed BcsE

B1: BcsF (natural protein, E. coli)
chain: MMTISDIIEIIVVCALIFFPLGYLARHSLRRIRDTLRLFFAKPRYVKPAGTLRRTEKARATKK
notes: BcsF, E. coli; amplified within the genomic region bcsEFG; single transmembrane helix, amphipathic helical extension and cytosolic C-terminal tail; Two copies in the macrocomplex; also called inner membrane polypeptide BcsF; source: for the BcsF variants experiment E. coli Δbcs BL21*(DE3)
**Q.** For B1, which “stoichiometry N” value [3] is on record?
**A.** 2

B2: BcsQ (natural protein, E. coli)
chain: MAVLGLQGVRGGVGTTTITAALAWSLQMLGENVLVVDACPDNLLRLSFNVDFTHRQGWARAMLDGQDWRDAGLRYTSQLDLLPFGQLSIEEQENPQHWQTRLSDICSGLQQLKASGRYQWILIDLPRDASQITHQLLSLCDHSLAIVNVDANCHIRLHQQALPDGAHILINNFRIGSQVQDDIYQLWLQSQRRLLPMLIHRDEAMAECLAAKQPVGEYRSDALAAEEILTLANWCLLNYSGLKTPVGSKS
notes: BcsQ, E. coli; amplified within the genomic region bcsRQA^HA-FLAGB of E. coli 1094; the strain used is 1094; also called SIMIBI family NTPase BcsQ
**Q.** How did the “stoichiometry N” value [4] turn out when B2 was run?
**A.** 2

B3: BcsB co-polymerase (natural protein, E. coli, UniProt P37652 26-779, looked up)
chain: TPATQPLINAEPAVAAQTEQNPQVGQVMPGVQGADAPVVAQNGPSRDVKLTFAQIAPPPGSMVLRGINPNGSIEFGMRSDEVVTKAMLNLEYTPSPSLLPVQSQLKVYLNDELMGVLPVTKEQLGKKTLAQMPINPLFISDFNRVRLEFVGHYQDVCEKPASTTLWLDVGRSSGLDLTYQTLNVKNDLSHFPVPFFDPSDNRTNTLPMVFAGAPDVGLQQASAIVASWFGSRSGWRGQNFPVLYNQLPDRNAIVFATNDKRPDFLRDHPAVKAPVIEMINHPQNPYVKLLVVFGRDDKDLLQAAKGIAQGNILFRGESVVVNEVKPLLPRKPYDAPNWVRTDRPVTFGELKTYEEQLQSSGLEPAAINVSLNLPPDLYLMRSTGIDMDINYRYTMPPVKDSSRMDISLNNQFLQSFNLSSKQEANRLLLRIPVLQGLLDGKTDVSIPALKLGATNQLRFDFEYMNPMPGGSVDNCITFQPVQNHVVIGDDSTIDFSKYYHFIPMPDLRAFANAGFPFSRMADLSQTITVMPKAPNEAQMETLLNTVGFIGAQTGFPAINLTVTDDGSTIQGKDADIMIIGGIPDKLKDDKQIDLLVQATESWVKTPMRQTPFPGIVPDESDRAAETRSTLTSSGAMAAVIGFQSPYNDQRSVIALLADSPRGYEMLNDAVNDSGKRATMFGSVAVIRESGINSLRVGDVYYVGHLPWFERVWYALANHPILLAVLAAISVILLAWVLWRLLRIISRRRLNPDNE
notes: BcsB, E. coli; amplified within the genomic region bcsRQA^HA-FLAGB of E. coli 1094; periplasmic modules CBD1-FD1-CBD2-FD2 and a C-terminal tail-anchor (TA); Six copies in the macrocomplex; the strain used is 1094; also called BcsB^TA (tail-anchor); periplasmic crown
**Q.** With B3 as the molecule, how does the “stoichiometry N” value [4] read?
**A.** 6

B4: BcsG pEtN-transferase (enzyme, E. coli)
chain: MTQFTQNTAMPSSLWQYWRGLSGWNFYFLVKFGLLWAGYLNFHPLLNLVFAAFLLMPLPRYSLHRLRHWIALPIGFALFWHDTWLPGPESIMSQGSQVAGFSTDYLIDLVTRFINWQMIGAIFVLLVAWLFLSQWIRITVFVVAILLWLNVLTLAGPSFSLWPAGQPTTTVTTTGGNAAATVAATGGAPVVGDMPAQTAPPTTANLNAWLNNFYNAEAKRKSTFPSSLPADAQPFELLVINICSLSWSDIEAAGLMSHPLWSHFDIEFKNFNSATSYSGPAAIRLLRASCGQTSHTNLYQPANNDCYLFDNLSKLGFTQHLMMGHNGQFGGFLKEVRENGGMQSELMDQTNLPVILLGFDGSPVYDDTAVLNRWLDVTEKDKNSRSATFYNTLPLHDGNHYPGVSKTADYKARAQKFFDELDAFFTELEKSGRKVMVVVVPEHGGALKGDRMQVSGLRDIPSPSITDVPVGVKFFGMKAPHQGAPIVIEQPSSFLAISDLVVRVLDGKIFTEDNVDWKKLTSGL
notes: BcsG, E. coli; amplified within the genomic region bcsEFG; N-terminal domain of 5 transmembrane helices, 48-residue linker, C-terminal pEtN-transferase domain (the last not resolved in the maps); Three copies in the macrocomplex; also called BcsG^NTD; BcsG3
**Q.** What does the source list for B4?
**A.** stoichiometry N [5]: 3; stoichiometry N [3]: 3

— paper PMC11470070, “Structural basis for synthase activation and cellulose modification in the E. coli Type II Bcs secretion system” (Nature Communications, 2024)
